Experimental findings from patent publication US20120189639A1 (Merck Sharp & Dohme, published 2012) are described below.

In assay [1] the target is T1, hGITR-hIgG (human, UniProt Q9Y5U5 26-161, limits assumed).
T1 construct: not shown: human IgG part of the fusion
T1 sequence: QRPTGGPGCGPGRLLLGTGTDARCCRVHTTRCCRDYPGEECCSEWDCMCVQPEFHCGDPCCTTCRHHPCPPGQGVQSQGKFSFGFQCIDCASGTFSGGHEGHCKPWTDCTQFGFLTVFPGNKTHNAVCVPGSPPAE
Put plainly: BIAcore SPR; hGITR-hIgG capture antigen, mAb analyte; apparent Kd. The method, then: (§1) BIAcore determinations are performed essentially as described at Example 4 of co-pending, commonly assigned U.S. patent application Ser. No. 11/511,635 (filed 29 Aug. 2006). Briefly, binding partners are immobilized on a BIAcore CM5 sensor chip using standard amine-coupling procedure. Kinetic constants for the various interactions are determined using BIAevaluation software 3.1. The Kd is determined using the calculated dissociation and association rate constants.
(Surface plasmon resonance follows binding to a sensor surface in real time, without labels.)

In assay [2] the target is T1, hGITR-hIgG. In words: BIAcore SPR; hGITR-hIgG capture antigen, mAb analyte. The method, then: as §1
The target in assay [3] is T2, human GITR on naïve CD4+ T cells (human, UniProt Q9Y5U5 26-241).
T2 sequence: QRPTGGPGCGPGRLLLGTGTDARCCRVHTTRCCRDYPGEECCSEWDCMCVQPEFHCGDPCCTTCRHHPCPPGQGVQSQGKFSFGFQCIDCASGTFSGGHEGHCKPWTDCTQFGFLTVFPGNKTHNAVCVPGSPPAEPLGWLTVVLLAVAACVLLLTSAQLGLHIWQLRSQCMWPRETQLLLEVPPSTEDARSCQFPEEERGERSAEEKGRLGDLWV
Put plainly: cell-based or functional assay.

B1: 35D8 (antibody, V domains shown)
VH: EVQLQESGPSLVKPSQTLSLTCSVTGDSITSGYWNWIRKFPGNKLEYMGYISYSGSTYYNPSLRGRISITRDTSKSQYYLQLSSVTTEDTATYYCSRRHLGSGYGWFAYWGQGTLVTVSA
VL: DIVMTQSHKFMSTSVGDRVSITCKASQDVNTAVAWYQQKPGQSPKLLIYWASTRHTGVPDRFTGSGSGTDYALTINSVQAEDLALYYCQQHSYTPPWTFGGGTKLEIRR
notes: Parental rodent anti-human GITR monoclonal antibody from a hybridoma; kappa VL; also called 35D8.B10
In the case of B1, the Kd with hGITR-hIgG [1] is 0.25 nM. In the assay with hGITR-hIgG [2], the koff (commonly a measure of how fast the partners let go of each other) came out at 0.0002 s⁻¹ and the kon – broadly, a measure of how fast the partners come together – is 801000 M⁻¹ s⁻¹. In addition, in assay [3], the “proliferation of naïve CD4+ T cells, mean, at 0.4 ng/mL Ab” value (from here on “proliferation … at 0.4 ng/mL Ab”) was 52300; the “proliferation of naïve CD4+ T cells, mean, at 0.9 ng/mL Ab” value (from here on “proliferation … at 0.9 ng/mL Ab”) was 50700; the “proliferation of naïve CD4+ T cells, mean, at 2.2 ng/mL Ab” value (from here on “proliferation … at 2.2 ng/mL Ab”) amounted to 59800; the “proliferation of naïve CD4+ T cells, mean, at 5.2 ng/mL Ab” value (from here on “proliferation … at 5.2 ng/mL Ab”) is 71400. For the same molecule, in assay [3], the “proliferation of naïve CD4+ T cells, mean, at 12.6 ng/mL Ab” value (from here on “proliferation … at 12.6 ng/mL Ab”) came to 86200; the “proliferation of naïve CD4+ T cells, mean, at 30.1 ng/mL Ab” value (shortened to “proliferation … at 30.1 ng/mL Ab”) was 95300; the “proliferation of naïve CD4+ T cells, mean, at 72.3 ng/mL Ab” value (“proliferation … at 72.3 ng/mL Ab” below) was found to be 92400; the “proliferation of naïve CD4+ T cells, mean, at 173.6 ng/mL Ab” value (from here on “proliferation … at 173.6 ng/mL Ab”) was found to be 96200. In assay [3], the “proliferation of naïve CD4+ T cells, mean, at 416.7 ng/mL Ab” value (“proliferation … at 416.7 ng/mL Ab” below) was found to be 89800 and the “proliferation of naïve CD4+ T cells, mean, at 1000.0 ng/mL Ab” value (shortened to “proliferation … at 1000.0 ng/mL Ab”) stood at 97300.

B2: 49A1 (antibody, V domains shown)
VH: EVQLQESGPSLVKPSQTLSLTCSVTGDSITSGYWNWIRKFPGNKFEYMGFISYSGNTYYNPSLRSRISITRDTSKNQYFLHLNSVTTEDTATYYCSRRHLISGYGWFAYWGQGTLVTVSA
VL: VIVMTQSHKFMSTSIGDRVNITCKASQDVISAVAWYQQKPGQSPKLLIYWASTRHTGVPDRFTGSGSGTDFTLTINSVQAEDRALYYCQQHSYTPPWTFGGGTNLEIKR
notes: Parental rodent anti-human GITR monoclonal antibody from a hybridoma; kappa VL; also called 49A1.B1
Turning to B2, the Kd with hGITR-hIgG [1] was found to be 0.665 nM. In the assay with hGITR-hIgG [2], the koff came out at 0.000318 s⁻¹ and the kon turned out to be 478000 M⁻¹ s⁻¹. Further, in assay [3], the “proliferation … at 0.4 ng/mL Ab” value came out at 54300; the “proliferation … at 0.9 ng/mL Ab” value was found to be 54100; the “proliferation … at 2.2 ng/mL Ab” value was 61100; the “proliferation … at 5.2 ng/mL Ab” value amounted to 72200. In assay [3], the “proliferation … at 12.6 ng/mL Ab” value turned out to be 86000; the “proliferation … at 30.1 ng/mL Ab” value stood at 95500; the “proliferation … at 72.3 ng/mL Ab” value is 96100; the “proliferation … at 173.6 ng/mL Ab” value came out at 93600. For the same molecule, in assay [3], the “proliferation … at 416.7 ng/mL Ab” value turned out to be 86300 and the “proliferation … at 1000.0 ng/mL Ab” value came to 78000.

B3: 17F10 (antibody, V domains shown)
VH: EVKLVESGGGFVKPGGSLKLSCAASGFTVRNYAMSWVRQTPEKRLEWVASISTGDRSYLPDSMKGRFTISRDNARNILYLQMSSLRSEDTAIYYCQRYFDFDSFAFWGQGTLVTVSA
VL: DIQMTQTPSSLSASLGDRVTISCRASQDINNFLNWYQQKPDGSLKLLIYYTSKLHSGVPSRFSGSGSGTDFSLTISNLDQEDVATYFCQQGHTLPPTFGGGTKLEVKR
notes: Parental rodent anti-human GITR monoclonal antibody from a hybridoma; kappa VL; also called 17F10.B1
As for B3, the Kd in the assay with hGITR-hIgG [1] was 0.111 nM. In the assay with hGITR-hIgG [2], this molecule yielded a koff of 0.000146 s⁻¹ and a kon of 1.31e+06 M⁻¹ s⁻¹. Besides, in assay [3], the “proliferation … at 0.4 ng/mL Ab” value turned out to be 58700; the “proliferation … at 0.9 ng/mL Ab” value was found to be 62000; the “proliferation … at 2.2 ng/mL Ab” value was 73400; the “proliferation … at 5.2 ng/mL Ab” value amounted to 77800. In assay [3], the “proliferation … at 12.6 ng/mL Ab” value was 90200; the “proliferation … at 30.1 ng/mL Ab” value turned out to be 87000; the “proliferation … at 72.3 ng/mL Ab” value was 83500; the “proliferation … at 173.6 ng/mL Ab” value turned out to be 87500. For the same molecule, in assay [3], the “proliferation … at 416.7 ng/mL Ab” value came out at 85700 and the “proliferation … at 1000.0 ng/mL Ab” value is 89400.

B4: 1D8 (antibody, V domains shown)
VH: QVTLKESGPGILKPSQTLSLTCSFSGFSLSTSGMGVGWIRQPSGKGLEWLAHIWWDDDKYYSPSLKSQLTISKDTSRNQVFLKITSLDTADTATYYCVRSYYYGSSGAMDYWGQGTSVTVSS
VL: DIVMTQTPLSLPVSLGDQASISCRSSQSLVHSDGNTYLHWYLQKPGQSPKLLIYKVSKRFSGVPDRFSGSGSGTDFTLKISRVEAEDLGVYFCSQSTHVPPTFGGGTKLEIKR
notes: Parental rodent anti-human GITR monoclonal antibody from a hybridoma; kappa VL; also called 1D8.B5
For B4, the Kd with hGITR-hIgG [1] was determined as 0.458 nM. In the assay with hGITR-hIgG [2], the koff came out at 0.000196 s⁻¹ and the kon amounted to 428000 M⁻¹ s⁻¹. Further, in assay [3], the “proliferation … at 0.4 ng/mL Ab” value amounted to 60800; the “proliferation … at 0.9 ng/mL Ab” value was 64800; the “proliferation … at 2.2 ng/mL Ab” value is 78500; the “proliferation … at 5.2 ng/mL Ab” value turned out to be 98200. Besides, in assay [3], the “proliferation … at 12.6 ng/mL Ab” value stood at 115000; the “proliferation … at 30.1 ng/mL Ab” value is 112000; the “proliferation … at 72.3 ng/mL Ab” value was 103000; the “proliferation … at 173.6 ng/mL Ab” value is 91000.

B5: 9E5 (antibody, V domains shown)
VH: QVTLKESGPGILQPSQTLSLTCTFSGFSLSTYGVGVGWIRQPSGKGLEWLANIWWDDDNYYNPSLIHRLTVSKDTSNNQAFLKITNVDTAETATYYCAQIKEPRDWFFEFWGPGTMVSVSS
VL: DIQMTQTPSSMPASLGERVTIFCRASQGVNNFLTWYQQKPDGTIKPLIFYTSNLQSGVPSRFSGSGSGTDYSLSISSLEPEDFAMYYCQQYHGFPNTFGAGTKLELKR
notes: Parental rodent anti-human GITR monoclonal antibody from a hybridoma; kappa VL; also called 9E5.C1
For the molecule B5, the Kd with hGITR-hIgG [1] turned out to be 0.012 nM. Besides, in the assay with hGITR-hIgG [2], the koff was found to be 2.7e-05 s⁻¹ and the kon is 2.33e+06 M⁻¹ s⁻¹. Moreover, in assay [3], the “proliferation … at 0.4 ng/mL Ab” value stood at 60100; the “proliferation … at 0.9 ng/mL Ab” value stood at 60900; the “proliferation … at 2.2 ng/mL Ab” value was 69200; the “proliferation … at 5.2 ng/mL Ab” value came to 77700. In assay [3], the “proliferation … at 12.6 ng/mL Ab” value is 85700; the “proliferation … at 30.1 ng/mL Ab” value turned out to be 83400; the “proliferation … at 72.3 ng/mL Ab” value worked out at 85300; the “proliferation … at 173.6 ng/mL Ab” value was found to be 84600. In assay [3], the “proliferation … at 416.7 ng/mL Ab” value amounted to 79700 and the “proliferation … at 1000.0 ng/mL Ab” value came out at 83600.

B6: 31H6 (antibody, V domains shown)
VH: QVTLKESGPGILQPSQTLSLTCTFSGFSLSTYGVGVGWIRQPSGKGLEWLANIWWDDDKYYNPSLKNRLTISKDTSNNQAFLKITNVDTAETATYYCAQIKEPRDWFFEFWGPGTMVSVSS
VL: DIQMTQTPSSMPASLGERVTIFCRASQGVNNYLTWYQQKPDGTIKPLIFYTSNLQSGVPSRFSGSGSGTDYSLSISSLEPEDFAMYYCQQYHGFPNTFGAGTKLELKR
notes: Parental rodent anti-human GITR monoclonal antibody from a hybridoma; kappa VL; also called 31H6.B7
With B6, the Kd in the assay with hGITR-hIgG [1] was no more than 0.005 nM. In the assay with hGITR-hIgG [2], this molecule had a koff of 7e-06 s⁻¹ and a kon of 1.57e+06 M⁻¹ s⁻¹. Also, in assay [3], the “proliferation … at 0.4 ng/mL Ab” value amounted to 58500; the “proliferation … at 0.9 ng/mL Ab” value came out at 57000; the “proliferation … at 2.2 ng/mL Ab” value is 67600; the “proliferation … at 5.2 ng/mL Ab” value is 79600. In assay [3], the “proliferation … at 12.6 ng/mL Ab” value is 90500; the “proliferation … at 30.1 ng/mL Ab” value stood at 94700; the “proliferation … at 72.3 ng/mL Ab” value is 98600; the “proliferation … at 173.6 ng/mL Ab” value turned out to be 96900. Further, in assay [3], the “proliferation … at 416.7 ng/mL Ab” value was 86900 and the “proliferation … at 1000.0 ng/mL Ab” value came out at 87500.
